Laboratory results published in paper PMC3669356.

Experiments:
[1] = target: rat GSTM1, purified recombinant (rat); assay: SPR; BIAcore; GSTM1 or GSTP1 immobilised by amine coupling on CM5 chips; AMPK 221WT injected (10 nM, or a concentration series) at 30 µl/min; 10 mM HEPES pH 7.4, 100 mM NaCl, 50 μM EDTA, 0.005% Surfactant P20; Langmuir 1:1 fit
[2] = target: Schistosoma japonicum GST (GST-Sj), purified recombinant (Schistosoma japonicum) [GST: P08515]; assay: SPR

Substance | Kd [1] [nM] | koff [1] [s⁻¹] | kon [1] [M⁻¹ s⁻¹] | equilibrium response [2] [RU]
AMPK α2β2γ1 (221WT) (from UniProt Q09137 1-552; Q9QZH4 1-271; P80385 1-330) (complex) | 5 | 0.0016 | 310000 | 203
AMPK α2T172Dβ2γ1 mutant (221TD) (from UniProt Q09137 1-552; Q9QZH4 1-271; P80385 1-330) (complex) |  |  |  | 121
